The results in this text go back to patent US20220259281A1.

For this assay, the target named is human CD40 (human) (UniProt P25942). In words: flow cytometry on PATHHUNTER U2OS-NIK/NFkB reporter cells; isotype control; beside it Unstained 56.7 and hCD40-APC 16805.
human CD40 (human), sequence (P25942 21-277): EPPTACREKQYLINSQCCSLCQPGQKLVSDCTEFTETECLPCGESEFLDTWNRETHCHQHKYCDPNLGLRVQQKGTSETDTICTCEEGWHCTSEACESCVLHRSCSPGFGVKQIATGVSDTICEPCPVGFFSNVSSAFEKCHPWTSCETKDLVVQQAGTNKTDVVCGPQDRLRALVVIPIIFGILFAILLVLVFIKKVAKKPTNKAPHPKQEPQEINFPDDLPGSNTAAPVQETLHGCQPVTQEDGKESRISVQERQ

As for APC Isotype (antibody), the MFI-APC is 2160.
